Among the targets are HLA-DR1 (human); HLA-DR2 (human); HLA-DR4 (human); HLA-DR5 (human); HLA-DR7 (human).
Holding throughout (experiment): ProImmune REVEAL MHC-peptide binding assay

B1: MET-005 (peptide, from a related filing)
peptide: TFSYVDPVITSISPKYG
Turning to B1, the Relative Binding Score (% of positive control) with HLA-DR1 (human) was found to be 0.87; with HLA-DR2 (human), 0.28; in the experiment with HLA-DR4 (human), 5.89; in the experiment with HLA-DR5 (human), 0.12; with HLA-DR7 (human) it was 3.69.

B2: BIR-002 (peptide, from a related filing)
peptide: TLGEFLKLDRERAKN
B2: the Relative Binding Score (% of positive control) in the experiment with HLA-DR1 (human) stood at 40.1; with HLA-DR2 (human) it was 0.05; with HLA-DR4 (human), 6.12; in the experiment with HLA-DR5 (human) it was 104; with HLA-DR7 (human), 0.27.
